Results as given in publication PMC6294937, “Structure and architecture of immature and mature murine leukemia virus capsids” (Proceedings of the National Academy of Sciences of the …, 2018).
Several values for one entry are separate records, joined by “and”; a condition that tells them apart may be missing. Identical values can stand only once.

Experiments:
[1] = target: MLV Gag polyprotein in immature virus particles (immature CA lattice) (murine leukemia virus (MLV)); test: cryo-EM structure; cryo-ET and subtomogram averaging of the CA layer in purified, fixed immature MLV particles (PR D32L); 79 particles, sixfold symmetry, 6.6 Å; crystal structures fitted as rigid bodies
[2] = target: truncated MLV CA-CTD (residues 132–218, CA-CTDΔCAH) (murine leukemia virus (MLV)); test: crystal structure; X-ray, SAD with cobalt, 1.89 Å, space group P3(1)21; crystals grown at 20 °C, 37 mg/mL protein, 4% PEG 3350, 0.1 M Hepes pH 8.2, 5 mM each CoCl2, CdCl2, MgCl2, NiCl2
[3] = target: the molecule itself; test: cryo-EM structure; cryo-ET and subtomogram averaging of the CA lattice in purified, fixed mature MLV particles; 134 virions; hexamer 7.2 Å, pentamer 8.6 Å; repeated with a second preparation (8.1 Å); crystal structures fitted as rigid bodies

Molecule “MLV Gag polyprotein in immature virus particles (immature CA lattice) (natural protein)” has a stoichiometry N [1] of 6.

“truncated MLV CA-CTD (residues 132–218, CA-CTDΔCAH) (domain or fragment)” was tested, and the stoichiometry N [2] was 2.

B1: MLV CA (capsid) protein in mature virus particles (mature CA lattice) (natural protein)
chain: PLRAGGNGQLQYWPFSSSDLYNWKNNNPSFSEDPGKLTALIESVLITHQPTWDDCQQLLGTLLTGEEKQRVLLEARKAVRGDDGRPTQLPNEVDAAFPLERPDWDYTTQAGRNHLVHYRQLLLAGLQNAGRSPTNLAKVKGITQGPNESPSAFLERLKEAYRRYTPYDPEDPGQETNVSMSFIWQSAPDIGRKLERLEDLKNKTLGDLVREAEKIFNKRETPEEREERIRRETEEKEERRRTEDEQKEKERDRRRHREMSKLL
notes: CA (capsid) protein of murine leukemia virus, the product of cleavage of Gag by the viral protease; 263 residues (CA-CTD printed as residues 132-263); numbers count on: the CA protein; also called mature MLV CA; mature CA hexamer; source: HEK293T, transfected with the infectious clone pRR390; in purified mature virus particles, fixed with 1% paraformaldehyde
With B1 the “stoichiometry N” value [3] was 6 and 5.
